From article PMC3755343, “A family of fluoride-specific ion channels with dual-topology architecture” (eLife, 2013)
Where a chain is given by its changes, count along the chain named. Names and notes keep the numbering of the source.

What was measured:
[1] = target: Fluc-Ec2 (E. coli (virulence plasmid)) (UniProt Q6J5N4); assay: SEC-MALS; SEC with static light scattering, refractive index and UV detectors; Superdex-75 in 400 mM NaF, 10 mM MES pH 6.5, 5 mM DM (detergent micelles)
[2] = target: the molecule itself; assay: single-molecule TIRF photobleaching; Cy5-labeled protein reconstituted at very low density (0.15 µg/mg lipid) in liposomes adhered to glass; counting of bleaching steps
[3] = target: the molecule itself; assay: cross-linking; ~0.1 mg/ml purified protein in 20 mM MOPS pH 7.5, 100 mM NaCl, 10 mM NaF, 5 mM DM with 0.125% glutaraldehyde for 5-120 min; 15% SDS-PAGE

Question: “Fluc-Ec2 (from UniProt Q6J5N4 1-126) (natural protein)” was tested. Which stoichiometry N [1] did it give?
Answer: Its stoichiometry N is 2.

B1: Fluc-Bpe R29C labeled with Cy5-maleimide (natural protein)
chain: MLTYAPLNFIAIGIGATLGAWLRWVLGLCLNGAGWPWGTLTANLVGGYLIGVMVALIASHPEWPAWIRLAAVTGFLGGLTTFSTFSAETVDMLERGVYATAAAYAGASLAGSLAMTGLGLATVRLLLR
modifications: Cy5-maleimide on the unique cysteine R29C (labeling efficiency 72%)
notes: Fluc homologue Bpe from Bordatella pertussis (so in the source), NCBI NP_879990.1, naturally cysteine-free, with a single cysteine substitution; source: E. coli BL21-DE3, purified, labeled with Cy5-maleimide, reconstituted into liposomes at 0.15 µg/mg lipid
Question: Which “stoichiometry N” value [2] does the source give for B1 here?
Answer: Its value is 2.

B2: Fluc-Bpe R29K (natural protein)
chain: B1 chain with C29K
notes: Fluc homologue Bpe from Bordatella pertussis (so in the source), NCBI NP_879990.1, lysine-less, with a single lysine in loop 1
Question: Does B2 bind [3]?
Answer: Result: binds

B3: Fluc-Bpe R95K (natural protein)
chain: B1 chain with C29R, R95K
notes: Fluc homologue Bpe from Bordatella pertussis (so in the source), NCBI NP_879990.1, lysine-less, with a single lysine in loop 3
Question: Does B3 bind [3]?
Answer: Result: binds

B4: Fluc-Bpe T3C labeled with Cy5-maleimide (natural protein)
chain: B1 chain with T3C, C29R
modifications: Cy5-maleimide on the unique cysteine T3C (labeling efficiency 62%)
notes: as for B1
Question: Does B4 bind [2]?
Answer: Result: binds
